Data on 7 molecules can be found in publication PMC5058626 (mAbs, 2016).

Experiment in all cases: SPR
The target of experiment [1] is CA645 gL4gH5 Fab (human) [IgG part: P01857].
Experiment [2] has the same target. The source holds these as a separate data set.
Experiment [3] has the same target. This is another data set of the same source.
Experiment [4] shares this target. This is another data set of the same source.
The target is the same in experiment [5]. The source holds these as a separate data set.
Experiment [6] shares this target. The source holds these as a separate data set.
Experiment [7] addresses T1, human serum albumin (Homo sapiens, UniProt P02768).
Experiment [8] concerns the target T1, human serum albumin. The source holds these as a separate data set.
Experiment [9] has as its target human serum albumin (Homo sapiens, UniProt P02768). The source holds these as a separate data set.
Experiment [10] deals with T1, human serum albumin. This is another data set of the same source.
The target in experiment [11] is T1, human serum albumin. The source holds these as a separate data set.
The target in a further experiment is mouse serum albumin (Mus musculus, UniProt P07724).
Sequence of mouse serum albumin (P07724 25-608): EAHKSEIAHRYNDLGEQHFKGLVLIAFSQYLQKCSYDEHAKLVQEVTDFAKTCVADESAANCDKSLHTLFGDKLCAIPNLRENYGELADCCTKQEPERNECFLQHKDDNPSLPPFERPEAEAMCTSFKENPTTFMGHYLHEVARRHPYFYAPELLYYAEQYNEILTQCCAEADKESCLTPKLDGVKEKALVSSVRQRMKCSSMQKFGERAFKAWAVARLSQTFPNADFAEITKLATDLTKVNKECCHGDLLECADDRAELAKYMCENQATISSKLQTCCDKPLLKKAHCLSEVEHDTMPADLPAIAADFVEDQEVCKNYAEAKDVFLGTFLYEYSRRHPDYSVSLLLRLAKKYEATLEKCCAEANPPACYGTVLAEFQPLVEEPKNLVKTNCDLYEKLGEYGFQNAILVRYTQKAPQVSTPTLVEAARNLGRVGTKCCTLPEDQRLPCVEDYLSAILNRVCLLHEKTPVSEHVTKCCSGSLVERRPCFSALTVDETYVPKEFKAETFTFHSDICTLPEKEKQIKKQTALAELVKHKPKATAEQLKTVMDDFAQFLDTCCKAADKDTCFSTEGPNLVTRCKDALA

For orientation: Kd means the equilibrium constant for the complex coming apart. Higher therefore signals weaker binding. In general, koff refers to a measure of how fast the partners let go of each other. A higher koff goes with fast dissociation. The term kon denotes the second-order rate constant of association.

Residue numbers refer to the chain shown, from its start. Where two headings read alike, the source gives them in different places.

“human serum albumin (from UniProt P02768 25-609) (natural protein)”: the Kd in experiment [1] was found to be 4.6 nM; in [2], 12.5 nM; in experiment [3], 13.3 nM; in experiment [4], 1.23 nM; in experiment [5] it was 10.7 nM; in [6] it was 1.8 nM.

B1: CA645 gL5gH5 Fab (Fab, V domains shown)
VH: EVQLLESGGGLVQPGGSLRLSCAVSGIDLSNYAINWVRQAPGKGLEWIGIIWASGTTFYATWAKGRFTISRDNSKNTVYLQMNSLRAEDTAVYYCARTVPGYSTAPYFDLWGQGTLVTVSS
VL: DIQMTQSPSSVSASVGDRVTITCQSSPSVASNFLSWYQQKPGKAPKLLIYEASKLTSGVPSRFSGSGSGTDFTLTISSLQPEDFATYYCGGGYSSISDTTFGGGTKVEIK
In the experiment with human serum albumin [7], B1 came in with a dissociation constant (Kd) of 453 nM, a koff of 0.0571 s⁻¹ and a kon of 126000 M⁻¹ s⁻¹.

B2: CA645 gL4gH37 Fab (Fab, V domains shown)
VH: B1 VH with F58E
VL: B1 VL with A30W
In the experiment with human serum albumin [7], B2 registered a Kd of 955 nM, a koff of 0.0583 s⁻¹ and a kon of 61000 M⁻¹ s⁻¹.

B3: CA645 gL5gH47 Fab (Fab, V domains shown)
VH: B1 VH with T104S
VL: B1 VL
Turning to B3, the Kd in the experiment with human serum albumin [8] stood at 52000 nM.

B4: CA645 gL19gH5 Fab (Fab, V domains shown)
VH: B1 VH
VL: B1 VL with A30W, S31D
In the experiment with human serum albumin [9], B4 gave a Kd of 5 nM.

B5: CA645 gL5gH37 Fab (Fab, V domains shown)
VH: B1 VH with F58E
VL: B1 VL
Regarding B5, the binding result in the experiment with human serum albumin [10] was “no binding”.

B6: CA645 recombinant rabbit Fab (Fab, V domains shown)
VH: QSLEESGGRLVTPGTPLTLTCTVSGIDLSNYAINWVRQAPGKGLEWIGIIWASGTTFYATWAKGRFTISRPSTTVDLEMTSLTTADTATYFCARTVPGYSTAPYFDLWGPGTLVTVSS
VL: AAVLTQTPSPVSAAVGGTVTINCQSSPSVWSNFLSWYQQKPGQPPKLLIYEASKLTSGVPSRFKGSGSGTQFTLTISDVQCGDAATYYCGGGYSSISDTTFGGGTKVVVK
Consider B6, for which the values for the dissociation constant Kd with human serum albumin [11] and with mouse serum albumin were 0.31 nM and 2.6 nM, respectively.
